Literature values in publication PMC4887106.

Molecular target: Histone H4K20me1/2 (Homo sapiens) (UniProt P62805)

Kd: 10 µM
Substance: MBTD1 4xMBT (from UniProt Q05BQ5)
